Laboratory results from article PMC4283735.

How the values were obtained:
[1] = target: 30Kc19 C76A protein (Bombyx mori); assay: native gel or EMSA
[2] = target: recombinant 30Kc19 protein (Bombyx mori); assay: non-reducing SDS-PAGE
[3] = target: recombinant 30Kc19 protein (Bombyx mori); assay: native gel or EMSA
[4] = target: recombinant 30Kc19 protein (Bombyx mori); assay: native gel or EMSA; remark: listed apart in the source
[5] = target: recombinant 30Kc19 protein (Bombyx mori); assay: native gel or EMSA; remark: listed apart in the source

Row | Substance | stoichiometry N [1] | stoichiometry N [2] | stoichiometry N [3] | stoichiometry N [4] | stoichiometry N [5]
1 | 30Kc19 C76A protein (natural protein) | 2 | – | – | – | –
2 | recombinant 30Kc19 protein (natural protein) | – | 2 | 2 | 2 | 2
